Experimental data as given in patent US20060153851A1.
“And” between values parts separate entries of the source, which are not always exact repeats. Identical values can stand only once.

Molecular target: each PDZ domain-containing protein (GST-DLG1, GST-NeDLG, and GST-PSD95 fusion proteins of FIG. 9B)
Assay: 30 µM biotinylated peptide on plate-bound GST-PDZ fusions, streptavidin-HRP (FIG. 9B)

OD units at 30 µM peptide: 0.4 OD units and 1 OD units
B1: biotinylated synthetic peptide corresponding to the C-terminal 20 amino acids of CLASP-2 (peptide)
peptide: VLHHHQNPEFYDEIKIELPTQLHEKHHLLLTFFHVSCDNSSKGSTKKRDVVETQVGYSWLPLLKDGRVVTSEQHIPVSANLPSGYLGYQELGMGRHYGPEIKWVDGGKPLLKISTHLVSTVYTQDQHLHNFFQYCQKTESGAQALGNELVKYLKSLHAMEGHVMIAFLPTILNQLFRVLTRATQEEVAVNVTRVIIHVVAQCHEEGLESHLRSYVKYAYKAEPYVASEYKTVHEELTKSMTTILKPSADFLTSNKLLRYSWFFFDVLIKSMAQHLIENSKVKLLRNQRFPASYHHAAETVVNMLMPHITQKFGDNPEASKNANHSLAVFIKRCFTFMDRGFVFKQINNYISCFAPGDPKTLFEYKFEFLRVVCNHEHYIPLNLPMPFGKGRIQRYQDLQLDYSLTDEFCRNHFLVGLLLREVGTALQEFREVRLIAISVLKNLLIKHSFDDRYASRSHQARIATLYLPLFGLLIENVQRINVRDVSPFPVNAGMTVKDESLALPAVNPLVTPQKGSTLDNSLHKDLLGAISGIASPYTTSTPNINSVRNADSRGSLISTDSGNSLPERNSEKSNSLDKHQQSSTLGNSVVRCDKLDQSEIKSLLMCFLYILKSMSDDALFTYWNKASTSELMDFFTISEVCLHQFQYMGKRYIARNQEGLGPIVHDRKSQTLPVSRNRTGMMHARLQQLGSLDNSLTFNHSYGHSDADVLHQSLLEANIATEVCLTALDTLSLFTLAFKNQLLADHGHNPLMKKVFDVYLCFLQKHQSETALKNVFTALRSLIYKFPSTFYEGRADMCAALCYEILKCCNSKLSSIRTEASQLLYFLMRNNFDYTGKKSFVRTHLQVIISVSQLIADVVGIGETRFQQSLSIINNCANSDRLIKHTSFSSDVKDLTKRIRTVLMATAQMKEHENDPEMLVDLQYSLAKSYASTPELRKTWLDSMARIHVKNGDLSEAAMCYVHVTALVAEYLTRKGVFRQGCTAFRVITPNIDEEASMMEDVGMQDVHFNEDVLMELLEQCADGLWKAERYELIADIYKLIIPIYEKRRDFFEDEDGKEYIYKEPKLTPLSEISQRLLKLYSDKFGSENVKMIQDSGKVNPKDLDSKYAYIQVTHVIPFFDEKELQERKTEFERSHNIRRFMFEMPFTQTGKRQGGVEEQCKRRTILTAIHCFPYVKKRIPVMYQHHTDLNPIEVAIDEMSKKVAELRQLCSSAEVDMIKLQLKLQGSVSVQVNAGPLAYARAFLDDTNTKRYPDNKVKLLKEVFRQFVEACGQALAVNERLIKEDQLEYQEEMKANYREMAKELSEIMHEQICPLEEKTSVLPNSLHIFNAISGTPTSTMVHGMTSSSSVV
modifications: biotin at the amino-terminus
